Drawing on doi:10.1101/2025.06.20.660705, this text covers amount of IDS co-immunoprecipitated relative to RNF13 WT for one molecule.

The assay deals with RNF13 DN-HA (dominant-negative RNF13, HA-tagged) (human) (UniProt O43567). Kind of assay: co-IP.
UniProt O43567, sequence (O43567 35-381): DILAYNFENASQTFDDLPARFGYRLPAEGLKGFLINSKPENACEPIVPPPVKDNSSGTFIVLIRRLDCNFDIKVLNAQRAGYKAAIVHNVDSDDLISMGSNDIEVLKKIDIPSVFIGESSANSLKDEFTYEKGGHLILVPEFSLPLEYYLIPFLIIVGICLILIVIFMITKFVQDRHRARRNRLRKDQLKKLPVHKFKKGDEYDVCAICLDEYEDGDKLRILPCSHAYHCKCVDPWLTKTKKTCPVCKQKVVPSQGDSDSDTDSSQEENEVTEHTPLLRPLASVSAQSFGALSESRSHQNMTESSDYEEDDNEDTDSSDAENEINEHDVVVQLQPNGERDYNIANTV

B1: IDS-V5 (wild-type, full-length human iduronate 2-sulfatase, C-terminal V5 tag) (enzyme)
chain: SETQANSTTDALNVLLIIVDDLRPSLGCYGDKLVRSPNIDQLASHSLLFQNAFAQQAVCAPSRVSFLTGRRPDTTRLYDFNSYWRVHAGNFSTIPQYFKENGYVTMSVGKVFHPGISSNHTDDSPYSWSFPPYHPSSEKYENTKTCRGPDGELHANLLCPVDVLDVPEGTLPDKQSTEQAIQLLEKMKTSASPFFLAVGYHKPHIPFRYPKEFQKLYPLENITLAPDPEVPDGLPPVAYNPWMDIRQREDVQALNISVPYGPIPVDFQRKIRQSYFASVSYLDTQVGRLLSALDDLQLANSTIIAFTSDHGWALGEHGEWAKYSNFDVATHVPLIFYVPGRTASLPEAGEKLFPYLDPFDSASQLMEPGRQSMDLVELVSLFPTLAGLAGLQVPPRCPVPSFHVELCREGKNLLKHFRFRDLEEDPYLPGNPRELIAYSQYPRPSDIPQWNSDKPSLKDIKIMGYSIRTIDYRYTVWVGFNPDEFLANFSDIHAGELYFVDSDPLQDHNMYNDSQGGDLFQLLMP
For the molecule B1, the amount of IDS co-immunoprecipitated relative to RNF13 WT is 50%.
